Data published in patent US20240210419A1 (UNIVERSITY OF VIRGINIA PATENT FOUNDATION, published 2024).

What was measured:
[1] = molecular target: FN-9*-10 recombinant fibronectin fragment (normal form mimic) (UniProt P02751); experiment: ELISA, fibronectin fragment tethered to maleimide activated plate, colorimetric detection
[2] = molecular target: T1, FN-4G-10 recombinant fibronectin fragment (diseased form mimic) (UniProt P02751 1448-1537; P02751 1538-1631, limits assumed); experiment: as above
T1 construct: domain: 9th type III repeat;domain: 10th type III repeat; also called FnIII9-4G-10; FnIII-4G-10
Text: (§1) In vitro ELISA binding assays were employed to determine the efficacy of binding of H5 antibodies and derivatives thereof to the diseased form (dise) and the healthy form (norm) of fibronectin. Maleimide activated ELISA plates were used to tether the recombinant fibronectin fragments, which were named as FN-4G-10 and FN-9*-10, and they mimicked diseased and normal form of FN, respectively. Both formats of H5 were used in different molar concentrations starting with 10^-5M and ending with 10-11M. Bound antibodies were detected by colorimetric method.
(§2) The data represents the combination of two independent experiments, one comparing E. coli (eH5) versus N. benthamiana (nicoH5) produced H5-scFv and the second comparing H5-scFv (scFv) to H5-IgG1 (H5-IgG). […] Further, it discriminated the two fragments showing higher affinity for FN-4G-10 (diseased form) compared to FN-9*-10 (Healthy form).

[3] = molecular target: FN-9*-10 recombinant fibronectin fragment (normal form mimic) (UniProt P02751); experiment: ELISA, fibronectin fragment tethered on maleimide-activated plate, colorimetric detection (absorbance)
[4] = molecular target: T1, FN-4G-10 recombinant fibronectin …; experiment: as above
Text: as §1, §2

[5] = molecular target: FN-4G-10 recombinant fibronectin fragment (diseased form mimic) (UniProt P02751); experiment: as above
Sequence of FN-4G-10 recombinant fibronectin fragment (diseased form mimic) (UniProt P02751) (P02751 other isoform, or with tags, fused parts or gaps limits assumed): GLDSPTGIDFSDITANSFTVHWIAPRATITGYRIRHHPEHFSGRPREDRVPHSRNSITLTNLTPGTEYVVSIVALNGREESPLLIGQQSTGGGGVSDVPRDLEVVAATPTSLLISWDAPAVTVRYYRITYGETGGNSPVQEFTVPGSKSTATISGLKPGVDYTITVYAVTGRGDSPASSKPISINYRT

Sequence of FN-9*-10 recombinant fibronectin fragment (normal form mimic) (P02751 1448-1631): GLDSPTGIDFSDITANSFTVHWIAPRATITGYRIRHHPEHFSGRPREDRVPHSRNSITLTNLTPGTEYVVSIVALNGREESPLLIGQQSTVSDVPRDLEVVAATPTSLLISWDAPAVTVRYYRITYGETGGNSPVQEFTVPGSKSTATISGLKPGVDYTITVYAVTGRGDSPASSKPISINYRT
T1 sequence (P02751 other isoform, or with tags, fused parts or gaps limits assumed): as the sequence (P02751 other isoform, or with tags, fused parts or gaps limits assumed) above

fold higher binding than the H5-scFv format at equimolar concentration [1]	fold higher binding than the H5-scFv format at equimolar concentration [2]	EC50 (read off the curve) [3]	EC50 (read off the curve) [4]	EC50 (read off the curve) [5]	Binder
> 50 fold	≥ 50 fold	10 nM	~4 nM	–	modified H5-IgG1 antibody (antibody, V domains shown, Full length IgG1 format; Made in a plug-and-(dis)play (PnP) hybridoma cell line; also called modified IgG1 format of H5) VH: EVQLLESGGGLVQPGGSLRLSCAASGFTFSSYAMSWVRQAPGKGLEWVSDIYDGGGTNYADSVKGRFTTSRDNSKNTLYLQMNSLRAEDTAVYYCAKTADNFDYWGQGTLVTVSS VL: DIQMTQSPSSLSASVGDRVTITCRASQSISSYLNWYQQKPGKAPKLLIYAASTLQSGVPSRFSGSGSGTDFTLTISSLQPEDFATYYCQQANSAPTTFGQGTKVEIKR
–	–	100 nM	–	100 nM	unmodified H5 antibody (H5-scFv) produced in E. coli (scFv, part only; not given: scFv linker, domain order, tags, V domains shown, not shown: another chain or arm of the molecule; small tags and cut ends) VH: EVQLLESGGGLVQPGGSLRLSCAASGFTFSSYAMSWVRQAPGKGLEWVSDIYDGGGTNYADSVKGRFTTSRDNSKNTLYLQMNSLRAEDTAVYYCAKTADNFDYWGQGTLVTVSS VL: DIQMTQSPSSLSASVGDRVTITCRASQSISSYLNWYQQKPGKAPKLLIYAASTLQSGVPSRFSGSGSGTDFTLTISSLQPEDFATYYCQQANSAPTTFGQGTKVEIK
